Experimental data as given in patent US20180201654A1, “PEPTIDE INHIBITORS OF HAUSP DEUBIQUITINASE” (priority 2012, published 2018).

How the values were obtained:
[1] = biological target: T1, HAUSP TRAF domain HAUSP^62-205 (Homo sapiens, UniProt Q93009); assay type: binding; design: All residues of HAUSP^62-205, with the exception of Asp^62, are included in the final model; hexahistidine tag (TEV-cleavable) (cleaved yes); made in house; host or cells: E. coli BL21 (DE3) RIPL; details: for Ka / TΔS / ΔG: ITC, 20° C., pH 7.0
Method: FIG. 5. Typical isothermal titration calorimetric measurements of the interactions between the HAUSP TRAF domain and the vIRF4 protein derivatives or other peptides. Purified proteins and synthesized peptides were reconstituted in 150 mM NaCl and 10 mM HEPES (pH 7.0). The calorimetric assays were performed using a VPITC system. All experiments were carried out with a stirring speed of 300 rpm at 20° C., and the thermal power was recorded every 10 s. Data were analyzed using the ORIGIN software package (version 7.0). […] Each titration against the HAUSP TRAF domain is indicated in each panel.
Purified proteins and synthesized peptides (Peptron Inc., Deajeon, Korea) were reconstituted in 150 mM NaCl and 10 mM HEPES (pH 7.0). The calorimetric assays were performed using a VP-ITC system (MicroCal Inc., Northampton, Mass.). Samples were degassed by vacuum aspiration for 15 min prior to loading. All experiments were carried out with a stirring speed of 300 rpm at 20° C., and the thermal power was recorded every 10 s. Data were analyzed using the ORIGIN software package (version 7.0) supplied with the instrument. […] (SEQ ID NO: 6); EBNA1^435-449, […] (SEQ ID NO: 7); MDM2^137-152, […] […] (SEQ ID NO: 10). Each set of ITC experiments was repeated two or three times.

[2] = biological target: T1, HAUSP TRAF domain HAUSP^62-205; assay: Size exclusion chromatography of complex formation in excess MDM2^137-152; assay type: binding; design: hexahistidine tag (TEV-cleavable) (cleaved yes); made in house; host or cells: E. coli BL21 (DE3) RIPL; details: in the presence of a 5-fold molar excess of MDM2^137-152

T1 sequence (Q93009 62-205): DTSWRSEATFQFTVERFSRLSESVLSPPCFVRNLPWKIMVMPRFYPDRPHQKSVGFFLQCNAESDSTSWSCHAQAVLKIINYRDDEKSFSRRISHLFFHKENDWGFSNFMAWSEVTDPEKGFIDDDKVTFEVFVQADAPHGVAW

B1: vIRF4^153-256 (protein)
chain: SDTREQSYEEAGAAAPAPPKAPSGLRGRPRKSNRYYNVGDITTEQKAACSVWIPVNEGASTSGMGSSGTRQVTQASSFTWRVPGDPPAPSTLTGPSDPHSSGAG
[1]
  Ka: 13.20 ± 0.85 10^6 M^−1
  TΔS: -42.05 kJ/mol
  ΔG: -32 kJ/mol

B2: vIRF4^153-216 (protein)
chain: SDTREQSYEEAGAAAPAPPKAPSGLRGRPRKSNRYYNVGDITTEQKAACSVWIPVNEGASTSGM
[2]
  complex formation with the TRAF domain: formed a stable complex
[1]; ITC comparison
  TRAF binding affinity (in words): comparable TRAF binding affinity
[1]
  Ka: 1.84 ± 0.10 10^6 M^−1
  TΔS: -30.8 kJ/mol
  ΔG: -35.2 kJ/mol
